Experimental findings from publication doi:10.1101/2025.04.28.650843 are described below.

Values joined by “and” are separate entries in the source; they are usually repeats but may differ in a detail not shown here. Equal values may be shown once.

The test concerns the target allophycocyanin (AP) (Synechococcus elongatus PCC 7942). The experiment in a line: cryo-EM structure.

As a reminder, the stoichiometry N is the number of molecules, sites or subunits per partner or assembly. Regarding allophycocyanin (AP) (complex), the stoichiometry N is 3 and 6.
